Here are results for one protein from article PMC10174515.

The term Km denotes the substrate concentration at which the rate is half of its maximum.

Substrate in the series: O=C(O)C(=O)O
The experiment in a line: purified protein. As to conditions: pH 3.1, 37 °C, MBTH 0.11 mM, DMAB 1.6 mM, HRP 0.1 U/ml, potassium oxalate, concentrations up to 400 uM, substrate (product) inhibition data excluded.

B1: barley oxalate oxidase (OxOx) (Hordeum vulgare) (protein)
chain: SDPDPLQDFCVADLDGKAVSVNGHTCKPMSEAGDDFLFSSKLTKAGNTSTPNGSAVTELDVAEWPGTNTLGVSMNRVDFAPGGTNPPHIHPRATEIGMVMKGELLVGILGSLDSGNKLYSRVVRAGETFVIPRGLMHFQFNVGKTEAYMVVSFNSQNPGIVFVPLTLFGSDPPIPTPVLTKALRVEAGVVELLKSKFAGGS
For the protein B1, the Km was 256 µM.
